From paper PMC8003416, “Modulation of Human Phenylalanine Hydroxylase by 3-Hydroxyquinolin-2(1H)-One Derivatives” (Biomolecules, 2021)

Target: the molecule itself
Assay: SEC; HiLoad Superdex 200 HR column (1.6 x 60 cm), 20 mM Na-HEPES, 200 mM NaCl, pH 7.0, 0.7 mL/min, 4 °C; preparative isolation of the oligomeric form after affinity purification

B1: MBP-FXa-hPAH-RD^1–120 (N-terminal regulatory domain of human phenylalanine hydroxylase fused to maltose binding protein) (domain or fragment, UniProt P00439 1-120, looked up)
chain: MSTAVLENPGLGRKLSDFGQETSYIEDNCNQNGAISLIFSLKEEVGALAKVLRLFEENDVNLTHIESRPSRLKKDEYEFFTHLDKRSLPALTNIIKILRHDIGATVHELSRDKKKDTVPW
notes: human phenylalanine hydroxylase, N-terminal regulatory domain, amino acids 1-120; The fusion is about 53 kDa; also called MBP-FXa-hPAH-RD^1–120 fusion protein; dimeric MBP-FXa-hPAH-RD^1–120; source: E. coli TB1, purified (amylose resin, then SEC to isolate dimers); not shown: MBP, N-terminal, kept
stoichiometry N: 2
